Values joined by “and” are separate entries in the source; they are usually repeats but may differ in a detail not shown here. Identical values can stand only once. One block for each molecule: values may come before it.
Columns and labels:
[1] = biological target: lamin B1Δrod mutant (human) (UniProt P20700); experiment: binding to an immobilised lamin matrix with urea step elution
[2] = biological target: wild-type lamin B1 (human) (UniProt P20700); experiment: as above
[3] = biological target: lamin B1Δrod mutant (human) (UniProt P20700); experiment: cross-linking
[4] = biological target: T1, wild-type lamin B1 (human), P20700; experiment: cross-linking; conditions: remark: other sources report otherwise
T1 chain: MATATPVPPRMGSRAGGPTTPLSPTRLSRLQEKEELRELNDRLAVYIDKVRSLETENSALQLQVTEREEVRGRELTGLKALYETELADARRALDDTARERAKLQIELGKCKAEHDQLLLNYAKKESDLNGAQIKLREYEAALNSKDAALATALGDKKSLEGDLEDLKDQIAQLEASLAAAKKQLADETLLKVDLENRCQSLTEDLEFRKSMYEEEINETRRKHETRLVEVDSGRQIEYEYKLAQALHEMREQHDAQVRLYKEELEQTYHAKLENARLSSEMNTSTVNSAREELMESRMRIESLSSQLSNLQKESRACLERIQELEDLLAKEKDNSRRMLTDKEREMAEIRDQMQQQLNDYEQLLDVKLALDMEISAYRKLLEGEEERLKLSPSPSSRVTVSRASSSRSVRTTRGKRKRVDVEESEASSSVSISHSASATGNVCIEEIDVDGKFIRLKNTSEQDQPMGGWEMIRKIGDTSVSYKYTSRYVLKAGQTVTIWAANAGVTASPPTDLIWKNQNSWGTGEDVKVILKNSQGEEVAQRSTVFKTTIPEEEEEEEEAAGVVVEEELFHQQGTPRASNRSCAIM

[5] = biological target: T1, wild-type lamin B1 (human), P20700; experiment: binding to an immobilised lamin matrix with urea step elution; conditions: remark: other sources report otherwise

Molecule: lamin A (from UniProt P02545 1-646) (natural protein)
- urea concentration at which the majority eluted [1]: 2 M and 4 M
- urea concentration at which the majority eluted [2]: 7 M

Molecule: lamin B1Δrod mutant (from UniProt P20700 1-69; P20700 340-586) (natural protein)
- stoichiometry N [3]: 2

Molecule: lamin C (from UniProt P02545-2 1-572) (natural protein)
- urea concentration at which elution began [1]: 0.5 M
- urea concentration at which the majority eluted [1]: 2 to 3 M
- urea concentration at which elution began [2]: 3 M
- urea concentration at which the majority eluted [2]: 5 to 7 M

The remaining lines, values ahead:

- urea concentration at which most protein eluted [1]: 4 M and 7 M
Molecule: wild-type lamin B1 (from UniProt P20700 1-586) (natural protein)

- stoichiometry N [4]: 2
- urea concentration at which most protein eluted [5]: 7 M and 4 M
B1: wild-type lamin B1, P20700 1-586 (natural protein)
chain: MATATPVPPRMGSRAGGPTTPLSPTRLSRLQEKEELRELNDRLAVYIDKVRSLETENSALQLQVTEREEVRGRELTGLKALYETELADARRALDDTARERAKLQIELGKCKAEHDQLLLNYAKKESDLNGAQIKLREYEAALNSKDAALATALGDKKSLEGDLEDLKDQIAQLEASLAAAKKQLADETLLKVDLENRCQSLTEDLEFRKSMYEEEINETRRKHETRLVEVDSGRQIEYEYKLAQALHEMREQHDAQVRLYKEELEQTYHAKLENARLSSEMNTSTVNSAREELMESRMRIESLSSQLSNLQKESRACLERIQELEDLLAKEKDNSRRMLTDKEREMAEIRDQMQQQLNDYEQLLDVKLALDMEISAYRKLLEGEEERLKLSPSPSSRVTVSRASSSRSVRTTRGKRKRVDVEESEASSSVSISHSASATGNVCIEEIDVDGKFIRLKNTSEQDQPMGGWEMIRKIGDTSVSYKYTSRYVLKAGQTVTIWAANAGVTASPPTDLIWKNQNSWGTGEDVKVILKNSQGEEVAQRSTVFKTTIPEEEEEEEEAAGVVVEEELFHQQGTPRASNRSCAIM

Reference: article PMC2190570
